Where a chain is given by its changes, count along the chain named. Ends that are not written are not given here. * marks the point of attachment. Myristoyl = CCCCCCCCCCCCCC(=O)*
Legend:
Assay in all cases: crystal structure
[1] = biological target: T1, SIRT2^F96A (human SIRT2 residues 50–356, F96A) (human, UniProt Q8IXJ6 50-356, F96A)
T1 sequence (looked up): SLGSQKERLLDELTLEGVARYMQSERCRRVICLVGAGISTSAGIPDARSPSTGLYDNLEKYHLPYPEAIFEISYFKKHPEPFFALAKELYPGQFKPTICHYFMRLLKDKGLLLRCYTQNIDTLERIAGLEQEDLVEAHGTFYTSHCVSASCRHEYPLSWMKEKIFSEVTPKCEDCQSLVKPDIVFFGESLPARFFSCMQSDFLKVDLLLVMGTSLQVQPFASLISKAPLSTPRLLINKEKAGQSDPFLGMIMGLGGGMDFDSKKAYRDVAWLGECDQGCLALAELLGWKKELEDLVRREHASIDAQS

[2] = biological target: T2, human SIRT2 (residues 50–356) (human, UniProt Q8IXJ6 50-356)
T2 sequence (looked up): T1 sequence (looked up) with A47F

[3] = biological target: T3, SIRT2^H187A (human SIRT2 residues 50–356, H187A) (human, UniProt Q8IXJ6 50-356, H187A)
T3 sequence (looked up): T1 sequence (looked up) with A47F, H138A

Measured: binding result

APRK(Myristoyl)QLA [H3K18myr peptide (APRKmyrQLA)]
binds: all assays above

Source: PMC12439037 (RSC Chemical Biology, 2025)
